According to patent US20210355194A1 (TWIST BIOSCIENCE, published 2021):
Positions count from the first letter of the chain named.

B1: 2-8 (antibody, V domains shown)
VH: EVQLLESGGGLVQPGGSLRLSCAASGFTFSDFAMAWVRQAPGKGLEWVSAISGSGDITYYADSVKGRFTISRDNSKNTLYLQMNSLRAEDTAVYYCAREADGLHSPWHFDLWGQGTLVTVSS
VL: DIQMTQSPSSLSASVGDRVTITCRASQSIDTYLNWYQQKPGKAPKLLIYAASALASGVPSRFSGSGSGTDFTLTISSLQPEDFATYYCQQSYSAPPYTFGQGTKVEIK
notes: also called variant 2-8
B2: 2-4 (antibody, V domains shown)
VH: B1 VH
VL: B1 VL
notes: also called variant 2-4
B3: 2-12 (antibody, V domains shown)
VH: EVQLLESGGGLVQPGGSLRLSCAASGFTFSDYPMNWVRQAPGKGLEWVSTISGSGGITFYADSVKGRFTISRDNSKNTLYLQMNSLRAEDTAVYYCVRHDEYSFDYWGQGTLVTVSS
VL: B1 VL with T31N, A50G, A51V, A55Q, Y92H, T98F
notes: also called variant 2-12
B4: 2-2 (antibody, V domains shown)
VH: EVQLLESGGGLVQPGGSLRLSCAASGFTFSRHAMNWVRQAPGKGLEWVSGISGSGDETYYADSVKGRFTISRDNSKNTLYLQMNSLRAEDTAVYYCARDLPASYYDSSGYYWHNGMDVWGQGTLVTVSS
VL: DIQMTQSPSSLSASVGDRVTITCRASQTINTYLNWYQQKPGKAPKLLIYSASTLQSGVPSRFSGSGSGTDFTLTISSLQPEDFATYYCQQSYSTFTFGQGTKVEIK
notes: also called variant 2-2
B5: variant 2-5 (antibody, V domains shown)
VH: B1 VH
VL: B1 VL with D30H
B6: variant 2-2 (antibody, V domains shown)
VH: B4 VH
VL: B4 VL
B7: SARS-CoV-2 S1 variant 2-5 (antibody, V domains shown)
VH: B1 VH
VL: B1 VL with D30H
B8: SARS-CoV-2 S1 variant 2-2 (antibody, V domains shown)
VH: B4 VH
VL: B4 VL
B9: 2-5 (antibody, V domains shown)
VH: B1 VH
VL: B1 VL with D30H
notes: also called variant 2-5
B10: 2-9 (antibody, V domains shown)
VH: EVQLLESGGGLVQPGGSLRLSCAASGFTFPRYAMSWVRQAPGKGLEWVSTISGSGSTTYYADSVKGRFTISRDNSKNTLYLQMNSLRAEDTAVYYCARLIDAFDIWGQGTLVTVSS
VL: DIQMTQSPSSLSASVGDRVTITCRASQRIGTYLNWYQQKPGKAPKLLIYAASNLEGGVPSRFSGSGSGTDFTLTISSLQPEDFATYYCQQNYSTTWTFGQGTKVEIK
notes: also called variant 2-9
B11: variant 2-4 (antibody, V domains shown)
VH: B1 VH
VL: B1 VL
B12: variant 2-8 (antibody, V domains shown)
VH: B1 VH
VL: B1 VL
B13: variant 2-12 (antibody, V domains shown)
VH: B3 VH
VL: B1 VL with T31N, A50G, A51V, A55Q, Y92H, T98F
B14: variant 2-13 (antibody, V domains shown)
VH: B3 VH with T50A, G56D, I57N, F59Y
VL: B1 VL with A50G, A55E, Y92H, T98F
B15: variant 2-5 (antibody, V domains shown)
VH: B1 VH
VL: B1 VL with D30H
B16: variant 2-2 (antibody, V domains shown)
VH: B4 VH
VL: B4 VL
B17: variant 3-10 (antibody, V domains shown)
VH: EVQLLESGGGLVQPGGSLRLSCAASGFTFRSHAMSWVRQAPGKGLEWVSSISGGGASTYYADSVKGRFTISRDNSKNTLYLQMNSLRAEDTAVYYCARVKYLTTSSGWPRPYFDNWGQGTLVTVSS
VL: DIQMTQSPSSLSASVGDRVTITCRASQSIRKYLNWYQQKPGKAPKLLIYASSTLQRGVPSRFSGSGSGTDFTLTISSLQPEDFATYYCQQSLSTPFTFGGGTKVEIK
B18: variant 2-9 (antibody, V domains shown)
VH: B10 VH
VL: B10 VL
B19: variant 2-1 (antibody, V domains shown)
VH: EVQLLESGGGLVQPGGSLRLSCAASGFTFSNYATDWVRQAPGKGLEWVSIISGSGGATYYADSVKGRFTISRDNSKNTLYLQMNSLRAEDTAVYYCAKGGYCSSDTCWWEYWLDPWGQGTLVTVSS
VL: DIQMTQSPSSLSASVGDRVTITCRASQSIHRFLNWYQQKPGKAPKLLIYAASNLHSGVPSRFSGSGSGTDFTLTISSLQPEDFATYYCQQSYGLPPTFGQGTKVEIK
B20: variant 6-73 (Fc fusion)
VHH: EVQLVESGGGLVQPGGSLRLSCAASGHTFSGYAMGWFRQAPGKEREFVAVITREGSTYYADSVKGRFTISADNSKNTAYLQMNSLKPEDTAVYYCARLGGEGFDYWGQGTLVTVSS
B21: variant 6-76 (Fc fusion)
VHH: EVQLVESGGGLVQPGGSLRLSCAASGLAFDFDGMGWFRQAPGKEREGVAAINSGGSTYYADSVKGRFTISADNSKNTAYLQMNSLKPEDTAVYYCARFFRAHDYWGQGTLVTVSS

Molecular target: T1, SARS-CoV-2 S protein trimer (SARS-CoV-2, UniProt P0DTC2 14-1208)
Test: Carterra SPR, DB format, S trimer

Binder	Kd [nM]
B1	115
B2	4340
B3	6.4
B4	1.2

Molecular target: T2, SARS-CoV-2 spike on live SARS-CoV-2 virus (SARS-CoV-2, UniProt P0DTC2 14-1273)
Test: cell-based or functional assay

Binder	EC80 [µg/mL]
B5	106
B6	355

Molecular target: T3, Acro COVID S1 (S1N-C82E8) (SARS-CoV-2, UniProt P0DTC2 16-685)
T3 construct: domain: subunit 1 (S1)
Test: phage ELISA

Binder	ELISA fold over background [fold]
B7	38.3
B8	39.4

Molecular target: SARS-CoV-2 spike on VSV-pseudotype SARS-CoV-2 (SARS-CoV-2, UniProt P0DTC2 14-1273)
Test: cell-based or functional assay

Binder	NC50 [µg/mL]
B5	18.3
B6	67.6

Molecular target: T1, SARS-CoV-2 S protein trimer
Test: Carterra SPR, direct capture (DC), S trimer

Binder	Kd [nM]
B1	47.4
B3	63.8
B9	17.3
B4	1.4

Molecular target: T1, SARS-CoV-2 S protein trimer
Test: Carterra SPR, Fc capture, S trimer

Binder	Kd [nM]
B3	3.2
B9	90.2
B4	0.8
B10	23600

Molecular target: T2, SARS-CoV-2 spike on live SARS-CoV-2 …
Test: cell-based or functional assay
Remark: another data set of the same source

Binder	EC50 [µg/mL]
B5	18.3
B6	67.6

Molecular target: T3, Acro COVID S1 (S1N-C82E8)
Test: phage ELISA
Remark: another data set of the same source

Binder	ELISA fold over background [fold]
B7	38.3
B8	39.4

Molecular target: Acro COVID S1 (S1N-C82E8) (SARS-CoV-2, UniProt P0DTC2 16-685)
Test: phage ELISA

Binder	specificity ELISA, fold over background [fold over background]
B11	37.7
B12	35.9
B13	39.8
B14	27.3
B15	38.3
B16	39.4
B17	1.2
B18	24.1
B19	39.3

Molecular target: CV S-protein construct 6 trimer TP31001F (SARS-CoV-2, UniProt P0DTC2 14-1208)
Test: SPR

Binder	Kd [nM]
B20	0.52
B21	1.77
